pKi: −log10 of the molar value.
Target: cathepsin L
Experiment: enzyme inhibition kinetics (Morrison equation for tight-binding inhibition); active cathepsin L (6 nM) incubated with varying concentrations of Amblyostatin-1 in 50 mM sodium acetate pH 5.5 at 37°C for 10 min; substrate Z-Phe-Arg-AMC; fluorescence read at 30°C over 15 min; residual Vmax fitted

## recombinant Amblyostatin-1 (natural protein)
  pKi: 9.16

Source: article PMC12310653
